Results published in publication PMC8803948, “TdfH selectively binds metal-loaded tetrameric calprotectin for zinc import” (Communications Biology, 2022).

Molecular target: the molecule itself
Experiment: cryo-EM structure; TdfH-CP complex formed on a StrepTactinXT column (CP preincubated with CaCl2 and ZnCl2), eluted with desthiobiotin, in PBS pH 7.4, 0.02% LMNG; Titan Krios 300 kV; 6.1 Å; CP seen as a dimer of S100A8-S100A9 heterodimers (heterotetramer)

B1: human calprotectin (CP), heterodimer of S100A8 and S100A9 (complex)
chain 1: MLTELEKALNSIIDVYHKYSLIKGNFHAVYRDDLKKLLETECPQYIRKKGADVWFKELDINTDGAVNFQEFLILVIKMGVAAHKKSHEESHKE
chain 2: KMSQLERNIETIINTFHQYSVKLGHPDTLNQGEFKELVRKDLQNFLKKENKNEKVIEHIMEDLDTNADKQLSFEEFIMLMARLTWASHEKMHEGDEGPGHHHKPGLGEGTP
notes: S100A8, human, subunit of calprotectin; S100A9, human, subunit of calprotectin; with calcium and zinc it stands as a heterotetramer (two heterodimers) in the cryo-EM complex; also called S100A8-S100A9 heterodimer; copies: 1 + 1
How did the “stoichiometry N” value turn out when B1 was run?
The value was 2.
